Columns and labels:
[1] = molecular target: T1, AKAP12 peptide AGWRKKTSFRKPKED (SEQ ID NO:99) (not fully specified)
T1 chain: AGWRKKTSFRKPKED

[2] = molecular target: T2, CREB1 peptide EILSRRPSYRKILND (SEQ ID NO:106) (not fully specified)
T2 chain: EILSRRPSYRKILND

[3] = molecular target: T3, DGKI peptide NRKKKRTSFKRKA (SEQ ID NO:79) (not fully specified)
T3 chain: NRKKKRTSFKRKA

[4] = molecular target: T4, DGKZ peptide KKKKRASFKRKSSKKG (SEQ ID NO:77) (not fully specified)
T4 chain: KKKKRASFKRKSSKKG

[5] = molecular target: T5, ERN1 peptide KLAVGRHSFSRRSGV (SEQ ID NO:94) (not fully specified)
T5 chain: KLAVGRHSFSRRSGV

[6] = molecular target: T6, GABA A receptor beta 2 peptide ERHVAQKKSRLRRRASQLKI (SEQ ID NO:142) (not fully specified)
T6 chain: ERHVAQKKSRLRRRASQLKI

[7] = molecular target: T7, HERG peptide TELEGGFSRQRKRKLSFRRR (SEQ ID NO:140) (not fully specified)
T7 chain: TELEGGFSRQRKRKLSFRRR

[8] = molecular target: T8, LIMK-2 peptide LRRRSLRRSNSISKSPGP (SEQ ID NO:121) (not fully specified)
T8 chain: LRRRSLRRSNSISKSPGP

[9] = molecular target: T9, M1 muscarinic receptor peptide RWDKRRWRKIPKRPGSVHRT (SEQ ID NO:155) (not fully specified)
T9 chain: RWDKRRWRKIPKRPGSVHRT

[10] = molecular target: T10, … peptide KKPFKLSGLSFKRNRKE (SEQ ID NO:88) (not fully specified)
T10 chain: KKPFKLSGLSFKRNRKE

[11] = molecular target: T11, MARCKS peptide KKKKKRFSFKKSFKL (SEQ ID NO:80) (not fully specified)
T11 chain: KKKKKRFSFKKSFKL

[12] = molecular target: T12, MARCKS peptide PSPSNETPKKKKKRFSFKKS (SEQ ID NO:157) (not fully specified)
T12 chain: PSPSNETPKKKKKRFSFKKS

[13] = molecular target: T13, MGC2941 peptide RPTPGDGEKRSRIKKSKKRK (SEQ ID NO:139) (not fully specified)
T13 chain: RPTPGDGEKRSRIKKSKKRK

[14] = molecular target: T14, Myt1 kinase peptide PPRTPGWHQLQPRRVSFRGE (SEQ ID NO:163) (not fully specified)
T14 chain: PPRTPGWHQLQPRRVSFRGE

[15] = molecular target: T15, NCF1 peptide GAPPRRSSIRNAH (SEQ ID NO:101) (not fully specified)
T15 chain: GAPPRRSSIRNAH

[16] = molecular target: T16, PARIS1 peptide EYLERRASRRRAV (SEQ ID NO:138) (not fully specified)
T16 chain: EYLERRASRRRAV

[17] = molecular target: T17, PARIS1 peptide EYLERRASRRRAV (SEQ ID NO:89) (not fully specified)
T17 chain: EYLERRASRRRAV

[18] = molecular target: T18, PARIS1 peptide RELEQLKAEYLERRASRRRA (SEQ ID NO:148) (not fully specified)
T18 chain: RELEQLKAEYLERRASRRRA

[19] = molecular target: T19, PKD1 peptide RVVQSVKHTKRKSSTVMK (SEQ ID NO:149) (not fully specified)
T19 chain: RVVQSVKHTKRKSSTVMK

[20] = molecular target: T20, SDPR peptide EKIKRSSLKKVDSLKK (SEQ ID NO:104) (not fully specified)
T20 chain: EKIKRSSLKKVDSLKK

[21] = molecular target: T21, SMARCA5 peptide MAQIERGEARIQRRISIKKA (SEQ ID NO:166) (not fully specified)
T21 chain: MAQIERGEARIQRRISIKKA

[22] = molecular target: T22, Urotensin-2 receptor peptide LYARLARAYRRSQRASFKRA (SEQ ID NO:159) (not fully specified)
T22 chain: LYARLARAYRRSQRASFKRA

[23] = molecular target: T23, dag kinase iota peptide NRKKKRTSFKRKA (SEQ ID NO:115) (not fully specified)
T23 chain: NRKKKRTSFKRKA

[24] = molecular target: T24, dag kinase iota peptide PQNSLKASNRKKKRTSFKRK (SEQ ID NO:151) (not fully specified)
T24 chain: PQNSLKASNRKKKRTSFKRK

[25] = molecular target: T25, dag kinase zeta peptide KKKKRASFKRKSSKKG (SEQ ID NO:114) (not fully specified)
T25 chain: KKKKRASFKRKSSKKG

[26] = molecular target: T26, p164-RhoGEF peptide PRLIRRGSKKRPAR (SEQ ID NO:124) (not fully specified)
T26 chain: PRLIRRGSKKRPAR

[27] = molecular target: T27, p164-RhoGEF peptide PRLIRRGSKKRPAR (SEQ ID NO:82) (not fully specified)
T27 chain: PRLIRRGSKKRPAR

[28] = molecular target: T28, phospholemman peptide EEGTFRSSIRRLSTRRR (SEQ ID NO:116) (not fully specified)
T28 chain: EEGTFRSSIRRLSTRRR

[29] = molecular target: T29, plectin peptide PLKEKKRERKTSSKSSVRKR (SEQ ID NO:125) (not fully specified)
T29 chain: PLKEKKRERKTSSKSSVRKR

[30] = molecular target: T30, slp4 peptide TYLLPDKSRQGKRKTSIKRD (SEQ ID NO:153) (not fully specified)
T30 chain: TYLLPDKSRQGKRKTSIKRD

[31] = molecular target: T31, ubiquitin specific protease 8 peptide RARRDSLKKIEIW (SEQ ID NO:136) (not fully specified)
T31 chain: RARRDSLKKIEIW

B1: PKC-epsilon (protein)
chain: MVVFNGLLKIKICEAVSLKPTAWSLRHAVGPRPQTFLLDPYIALNVDDSRIGQTATKQKTNSPAWHDEFVTDVCNGRKIELAVFHDAPIGYDDFVANCTIQFEELLQNGSRHFEDWIDLEPEGRVYVIIDLSGSSGEAPKDNEERVFRERMRPRKRQGAVRRRVHQVNGHKFMATYLRQPTYCSHCRDFIWGVIGKQGYQCQVCTCVVHKRCHELIITKCAGLKKQETPDQVGSQRFSVNMPHKFGIHNYKVPTFCDHCGSLLWGLLRQGLQCKVCKMNVHRRCETNVAPNCGVDARGIAKVLADLGVTPDKITNSGQRRKKLIAGAESPQPASGSSPSEEDRSKSAPTSPCDQEIKELENNIRKALSFDNRGEEHRAASSPDGQLMSPGENGEVRQGQAKRLGLDEFNFIKVLGKGSFGKVMLAELKGKDEVYAVKVLKKDVILQDDDVDCTMTEKRILALARKHPYLTQLYCCFQTKDRLFFVMEYVNGGDLMFQIQRSRKFDEPRSRFYAAEVTSALMFLHQHGVIYRDLKLDNILLDAEGHCKLADFGMCKEGILNGVTTTTFCGTPDYIAPEILQELEYGPSVDWWALGVLMYEMMAGQPPFEADNEDDLFESILHDDVLYPVWLSKEAVSILKAFMTKNPHKRLGCVASQNGEDAIKQHPFFKEIDWVLLEQKKIKPPFKPRIKTKRDVNNFDQDFTREEPVLTLVDEAIVKQINQEEFKGFSYFGEDLMP
**Q.** B1 was tested. Which in vitro phosphorylation (% of best substrate) [1] did it give?
**A.** The in vitro phosphorylation (% of best substrate) was 27.

**Q.** And the in vitro phosphorylation (% of best substrate) [2]?
**A.** The in vitro phosphorylation (% of best substrate) was 31.

**Q.** And the in vitro phosphorylation (% of best substrate) [3]?
**A.** Its in vitro phosphorylation (% of best substrate) is 92.

**Q.** And the in vitro phosphorylation (% of best substrate) [4]?
**A.** Its in vitro phosphorylation (% of best substrate) is 71.

**Q.** And the in vitro phosphorylation (% of best substrate) [5]?
**A.** The in vitro phosphorylation (% of best substrate) was 13.

**Q.** What about the in vitro phosphorylation, 1 uM peptide (% of best substrate) [6] of the same protein?
**A.** The in vitro phosphorylation, 1 uM peptide (% of best substrate) was 28.

**Q.** And the in vitro phosphorylation, 1 uM peptide (% of best substrate) [7]?
**A.** The in vitro phosphorylation, 1 uM peptide (% of best substrate) was 27.

**Q.** And the in vitro phosphorylation, 1 uM peptide (% of best substrate) [8]?
**A.** Its in vitro phosphorylation, 1 uM peptide (% of best substrate) is 49.

**Q.** And the in vitro phosphorylation, 1 uM peptide (% of best substrate) [9]?
**A.** Its in vitro phosphorylation, 1 uM peptide (% of best substrate) is 26.

**Q.** And the in vitro phosphorylation (% of best substrate) [10]?
**A.** The in vitro phosphorylation (% of best substrate) was 44.

**Q.** What about the in vitro phosphorylation (% of best substrate) [11] of the same protein?
**A.** The in vitro phosphorylation (% of best substrate) was 71.

**Q.** What about the in vitro phosphorylation, 1 uM peptide (% of best substrate) [12] of the same protein?
**A.** Its in vitro phosphorylation, 1 uM peptide (% of best substrate) is 12.

**Q.** What about the in vitro phosphorylation, 1 uM peptide (% of best substrate) [13] of the same protein?
**A.** The in vitro phosphorylation, 1 uM peptide (% of best substrate) was 24.

**Q.** What about the in vitro phosphorylation, 1 uM peptide (% of best substrate) [14] of the same protein?
**A.** The in vitro phosphorylation, 1 uM peptide (% of best substrate) was 14.

**Q.** What about the in vitro phosphorylation (% of best substrate) [15] of the same protein?
**A.** Its in vitro phosphorylation (% of best substrate) is 19.

**Q.** And the in vitro phosphorylation, 1 uM peptide (% of best substrate) [16]?
**A.** Its in vitro phosphorylation, 1 uM peptide (% of best substrate) is 27.

**Q.** What about the in vitro phosphorylation (% of best substrate) [17] of the same protein?
**A.** Its in vitro phosphorylation (% of best substrate) is 45.

**Q.** And the in vitro phosphorylation, 1 uM peptide (% of best substrate) [18]?
**A.** Its in vitro phosphorylation, 1 uM peptide (% of best substrate) is 33.

**Q.** And the in vitro phosphorylation, 1 uM peptide (% of best substrate) [19]?
**A.** The in vitro phosphorylation, 1 uM peptide (% of best substrate) was 27.

**Q.** And the in vitro phosphorylation (% of best substrate) [20]?
**A.** Its in vitro phosphorylation (% of best substrate) is 17.

**Q.** And the in vitro phosphorylation, 1 uM peptide (% of best substrate) [21]?
**A.** Its in vitro phosphorylation, 1 uM peptide (% of best substrate) is 10.

**Q.** What about the in vitro phosphorylation, 1 uM peptide (% of best substrate) [22] of the same protein?
**A.** Its in vitro phosphorylation, 1 uM peptide (% of best substrate) is 25.

**Q.** And the in vitro phosphorylation, 1 uM peptide (% of best substrate) [23]?
**A.** Its in vitro phosphorylation, 1 uM peptide (% of best substrate) is 91.

**Q.** And the in vitro phosphorylation, 1 uM peptide (% of best substrate) [24]?
**A.** Its in vitro phosphorylation, 1 uM peptide (% of best substrate) is 24.

**Q.** And the in vitro phosphorylation, 1 uM peptide (% of best substrate) [25]?
**A.** The in vitro phosphorylation, 1 uM peptide (% of best substrate) was 100.

**Q.** And the in vitro phosphorylation, 1 uM peptide (% of best substrate) [26]?
**A.** The in vitro phosphorylation, 1 uM peptide (% of best substrate) was 49.

**Q.** And the in vitro phosphorylation (% of best substrate) [27]?
**A.** The in vitro phosphorylation (% of best substrate) was 72.

**Q.** What about the in vitro phosphorylation, 1 uM peptide (% of best substrate) [28] of the same protein?
**A.** The in vitro phosphorylation, 1 uM peptide (% of best substrate) was 92.

**Q.** What about the in vitro phosphorylation, 1 uM peptide (% of best substrate) [29] of the same protein?
**A.** The in vitro phosphorylation, 1 uM peptide (% of best substrate) was 48.

**Q.** What about the in vitro phosphorylation, 1 uM peptide (% of best substrate) [30] of the same protein?
**A.** Its in vitro phosphorylation, 1 uM peptide (% of best substrate) is 24.

**Q.** And the in vitro phosphorylation, 1 uM peptide (% of best substrate) [31]?
**A.** The in vitro phosphorylation, 1 uM peptide (% of best substrate) was 33.

From patent US20050064507
